Values belong to the molecule of their own block, whether it stands above or below them.
Legend:
[1] = target: GST-tagged full-length S. cerevisiae Pus4 (S. cerevisiae) (UniProt P48567); assay: sucrose gradient ultracentrifugation; 10 uM purified GST-Pus4 with and without 10 uM total yeast tRNA, 30 min at room temperature; 10-30% sucrose step gradient in Buffer B (50 mM Tris-HCl pH 7.5, 100 mM KCl), SW 55 Ti, 4 h at 55,000 rpm; fractions read by SDS-PAGE; standards beta-amylase and carbonic anhydrase; apparent molecular …
[2] = target: T1, GST-Pus4 (Saccharomyces cerevisiae, UniProt P48567 1-403); assay: smFRET / PIFE; 200 nM Pus4; BLI: 50 mM Tris-HCl pH 7.5, 100 mM KCl, 0.02% Tween-20, 30 °C; EMSA: 50 mM Tris-HCl pH 7.5, 100 mM KCl, 30 min room temperature, 8% native PAGE in TBE at 4 °C; conditions: protein: recombinant; tags: N-terminal GST, Factor Xa site (pGEX-5X-3); tag not removed; label: 5' biotin; Cy3 at U4 C5; Cy5 at U41 C5; tRNA cloverleaf
[3] = target: T1, GST-Pus4; assay: EMSA; 30 nM RNA; all bound at >=200 nM Pus4, 30 min; labelled form assumed; BLI: 50 mM Tris-HCl pH 7.5, 100 mM KCl, 0.02% Tween-20, 30 °C; EMSA: 50 mM Tris-HCl pH 7.5, 100 mM KCl, 30 min room temperature, 8% native PAGE in TBE at 4 °C; conditions: protein: recombinant; tags: N-terminal GST, Factor Xa site (pGEX-5X-3); tag not removed; label: 5' biotin; Cy3 at U4 C5; Cy5 at U41 C5; tRNA cloverleaf

T1 sequence (P48567 whole entry): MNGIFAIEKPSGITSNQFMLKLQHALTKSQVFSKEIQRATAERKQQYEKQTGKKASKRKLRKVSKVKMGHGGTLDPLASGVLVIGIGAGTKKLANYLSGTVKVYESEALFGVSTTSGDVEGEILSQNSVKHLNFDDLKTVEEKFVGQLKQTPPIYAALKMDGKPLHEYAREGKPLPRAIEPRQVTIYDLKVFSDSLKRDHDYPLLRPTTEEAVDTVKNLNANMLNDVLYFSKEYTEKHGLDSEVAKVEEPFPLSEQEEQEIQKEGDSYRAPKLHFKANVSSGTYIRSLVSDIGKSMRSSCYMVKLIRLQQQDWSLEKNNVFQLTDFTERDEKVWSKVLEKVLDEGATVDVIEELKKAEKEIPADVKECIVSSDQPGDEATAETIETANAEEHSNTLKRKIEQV

stoichiometry N [1]: 2
Molecule: GST-tagged full-length S. cerevisiae Pus4 (from UniProt P48567 1-403) (enzyme)

B1: Ψ55 tRNA eMet(CAU), Cy3/Cy5 (structured_RNA)
RNA: GCUUCAGUAGCUCAGUAGGAAGAGCGUCAGUCUCAUAAUCUGAAGGUCGAGAGUUCGAACCUCCCCUGGAGCACCA
modifications: pseudouridine at position 55 (second U of GAGAGUUCGAA)
binding result [2]: binds

B2: U55 tRNA eMet(CAU), Cy3/Cy5 (structured_RNA)
RNA: GCUUCAGUAGCUCAGUAGGAAGAGCGUCAGUCUCAUAAUCUGAAGGUCGAGAGUUCGAACCUCCCCUGGAGCACCA
binding result [3]: binds
